B1: S-adenosylhomocysteine hydrolase-like protein 1 (Homo sapiens), O43865 (parent)
chain: MSMPDAMPLPGVGEELKQAKEIEDAEKYSFMATVTKAPKKQIQFADDMQEFTKFPTKTGRRSLSRSISQSSTDSYSSAASYTDSSDDEVSPREKQQTNSKGSSNFCVKNIKQAEFGRREIEIAEQDMSALISLRKRAQGEKPLAGAKIVGCTHITAQTAVLIETLCALGAQCRWSACNIYSTQNEVAAALAEAGVAVFAWKGESEDDFWWCIDRCVNMDGWQANMILDDGGDLTHWVYKKYPNVFKKIRGIVEESVTGVHRLYQLSKAGKLCVPAMNVNDSVTKQKFDNLYCCRESILDGLKRTTDVMFGGKQVVVCGYGEVGKGCCAALKALGAIVYITEIDPICALQACMDGFRVVKLNEVIRQVDVVITCTGNKNVVTREHLDRMKNSCIVCNMGHSNTEIDVTSLRTPELTWERVRSQVDHVIWPDGKRVVLLAEGRLLNLSCSTVPTFVLSITATTQALALIELYNAPEGRYKQDVYLLPKKMDEYVASLHLPSFDAHLTELTDDQAKYLGLNKNGPFKPNYYRY
partner: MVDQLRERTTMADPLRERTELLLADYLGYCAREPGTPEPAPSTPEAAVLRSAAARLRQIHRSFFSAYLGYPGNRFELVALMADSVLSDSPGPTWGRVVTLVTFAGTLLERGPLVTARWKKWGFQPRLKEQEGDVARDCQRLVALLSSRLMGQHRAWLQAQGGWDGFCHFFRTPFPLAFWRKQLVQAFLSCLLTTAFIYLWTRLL

Variants of: B1
Conditions: with BCL2L10, Q9HD36

Variant	effect of a mutation on the interaction
S68A	with no effect
